What all share (test): purified protein
Holding throughout (assay type): biochemical, Plasmodium falciparum

Substrate in data set [1]: CC(C)=CCOP(=O)(O)OP(=O)(O)O
The following applies: Mg2+ ([…] MgCl2 in assay) allylic substrate; DMAPP, GPP, and FPP all compete for binding to the free enzyme active site.

Substrate in data set [2]: CC(C)=CCC/C(C)=C/COP(=O)(O)OP(=O)(O)O
The following applies: Mg2+ ([…] MgCl2 in assay) allylic substrate; DMAPP, GPP, and FPP all compete for binding to the free enzyme active site.

Substrate in data set [3]: C=C(C)CCO[P@@](=O)(O)OP(=O)(O)O
The following applies: Mg2+ ([…] MgCl2 in assay) second substrate.

Substrate in data set [4]: CC(C)=CCC/C(C)=C/CC/C(C)=C/CO[P@@](=O)(O)OP(=O)(O)O
To be noted: Mg2+ ([…] MgCl2 in assay) allylic substrate; DMAPP, GPP, and FPP all compete for binding to the free enzyme active site.

B1: farnesyl diphosphate/geranylgeranyl diphosphate synthase (rPfFPPS) (Plasmodium falciparum 3D7) (protein)
chain: MENEQNNQDSENGLDYFRSMYDRYRDVFINHINDYVLEDDIKIIISKYYKLLFDYNCLGGKNNRGILVILIYEYVKNRDINCNEWEKVACIAWCIEILQASFLVADDIMDKGETRRNKHCWYLLKDVEIKNAVNDVFLLYNAIYKLLDVYLRNDNCYLDLITSFREATLKTIVGQHLDTNIFSDKYSHIDKDIDVNNINISQENKININMLNFKVYQNIIIHKTAYYSFFLPIVCGMQMGGISLDNLLYKKVENIAILMGEYFQVHDDYIDTFGDSKKTGKVGSDIQNNKLTWPLIKAFELCSQPEKEDIIRNYGKDNVTCIKFINDIYEHYNIRDHYVEYEKKQKMKILEAINQLHHEGIEYVLKYVMDILFTGA
notes: full length protein expressed as a GST fusion protein
With B1, the Km in the data set “purified protein [1]” is 68 ± 5 µM; in “purified protein [2]”, 7.8 ± 1.3 µM; in the data set “purified protein [3]” it was 2.4 ± 0.3 µM; in the data set “purified protein [4]”, 2.06 ± 0.4 µM. Moreover, the Vmax in the data set “purified protein [1]” amounted to 0.453 µmol/min/mg; in the data set “purified protein [2]”, 0.341 µmol/min/mg; in “purified protein [3]”, 0.156 µmol/min/mg; in “purified protein [4]”, 0.327 µmol/min/mg.
